Values of other authors in publication PMC6154725.

Molecular target: Tyr7 (UniProt position 9, HHGWGYGQDDG)
Assay: NMR
Settings: solution, Zn enzyme, no ligand mentioned

Question: For “Carbonic anhydrase II (HCA II) (Homo sapiens)”, which pKa is on record?
Answer: Its pKa is ~7.
